Reference: paper PMC4757827 (2016)

Target: recombinant importin α1 (construct not stated for this experiment) (Homo sapiens (Human), UniProt P52292)
Experiment: ELISA

- binding result: no binding
B1: IFN-γ (recombinant) (protein)
chain: QDPYVKEAENLKKYFNAGHSDVADNGTLFLGILKNWKEESDRKIMQSQIVSFYFKLFKNFKDDQSIQKSVETIKEDMNVKFFNSNKKKRDDFEKLTNYSVTDLNVQRKAIHELIQVMAELSPAAKTGKRKRSQMLFRG
